Measurements taken from patent US20260152552A1 (CURON BIOPHARMACEUTICAL SHANGHAI, published 2026).
Where a chain is given by its changes, count along the chain named.

B1: humanized anti-L1CAM antibody hz103E9B3H9L4 (antibody, V domains shown)
VH: EVQLVQSGAEVKKPGASVKVSCKASGYTFTSYTMHWVRQAPGQGLEWIGDINPNYGGTSYNEKFKDRATLTVDKSTSTAYMELRSLRSDDTAVYYCAREGATGTWYFDVWGQGTTVTVSS
VL: DIQMTQSPSSLSASVGDRVTITCSASSSVSFMFWYQQKPGKAPKLLIYLTSNLASGVPSRFSGSGSGTDFTLTISSLQPEDFATYYCQQWRSNPPTFGGGTKVEIK
B2: humanized anti-L1CAM antibody hz103E9B3H9L6 (antibody, V domains shown)
VH: B1 VH
VL: B1 VL with L45P, L46W
B3: humanized anti-L1CAM antibody hz103E9B3H9L5 (antibody, V domains shown)
VH: B1 VH
VL: B1 VL with L45P
B4: anti-L1CAM human-mouse chimeric antibody ch103E9B3 (antibody, V domains shown)
VH: EVQLQQSGPELLKPGASVKISCKASGYTFTSYTMHWVKQSHGKSLEWIGDINPNYGGTSYNEKFKDKATLTVDKSSSTAYMELRSLTSEDSAVYYCAREGATGTWYFDVWGTGTTVTVSS
VL: QIVLTQSPALMSASPGEKVTMTCSASSSVSFMFWYQQKPRSSPKPWIYLTSNLASGVPARFSGSGSGTSYSLTISSMEAEDAATYYCQQWRSNPPTFGAGTKLELK
notes: VH and VL of mouse 103E9B3 with human IgG1 constant regions; The entries as printed seem to begin with a leader peptide
B5: mouse anti-L1CAM monoclonal antibody 25F8H8 (antibody, V domains shown)
VH: QVQLQQSGAELAKPGASVKMSCQASGYTFTTYWMHWVKQRPGQGLEWIGYINPSTGYTDYNQKFKDKATLTADKSSSTAYMQLSSLTSEDSAVYYCARRQLGLPLFDYWGQGTTLTVSS
VL: DIVMTQSHKFLSTSVGDRVSITCKASQDVGTAVAWYQHKPGQSPKLLIFWASTRHTGVPDRFTGSGSGTDFTLTISNVQSEDLADYFCQQYSNYPLTFGAGPKLELK
notes: Mouse IgG tested as hybridoma supernatant
B6: mouse anti-L1CAM monoclonal antibody 46F1D5 (antibody, V domains shown)
VH: B5 VH with L4V, V18M, Q23K, T31R, H35Q, K63N, Q100H
VL: B5 VL with L11M, V15L, H38Q, F49Y, D85E, P102T, E105D
notes: as for B5
B7: mouse anti-L1CAM monoclonal antibody 26A12C1 (antibody, V domains shown)
VH: B5 VH with Q23K, T31N, H35Q, G56Y, T58S, Y80F, L101F, V117L
VL: B5 VL with L11M, H38Q, F49Y, A84T, P102T, K103E
notes: as for B5
B8: mouse anti-L1CAM monoclonal antibody 103E9B3 (antibody, V domains shown)
VH: B4 VH
VL: B4 VL
notes: as for B5
B9: mouse anti-L1CAM monoclonal antibody 49E10H1 (antibody, V domains shown)
VH: DVQLQESGPGLVKPSQSLSLTCTVTGYSITSDYAWNWIRQFPGNRLEWMGYITYSGTTTYNPSLKSRISITRDTSKNQFFLQLNSVTTADTATYYCTLDHYGNYAYFDYWGQGTTLTVSS
VL: QIVLSQSPAILSASPGEKVTMTCRASSSVSFMHWYQQKPRSSPKPWIYASSNLVSGVPTRFSGSGSGTSYSLTISRVEAEDAATYYCQQWSSNPSTFGAGTKLELK
notes: as for B5
B10: anti-L1CAM human-mouse chimeric antibody ch46F1D5 (antibody, V domains shown)
VH: B5 VH with L4V, V18M, Q23K, T31R, H35Q, K63N, Q100H
VL: B5 VL with L11M, V15L, H38Q, F49Y, D85E, P102T, E105D
notes: VH and VL of mouse 46F1D5 with human IgG1 constant regions; The entries as printed seem to begin with a leader peptide
B11: anti-L1CAM human-mouse chimeric antibody ch25F8H8 (antibody, V domains shown)
VH: B5 VH
VL: B5 VL
notes: VH and VL of mouse 25F8H8 with human IgG1 constant regions (CH1, CH2, CH3)
B12: anti-L1CAM human-mouse chimeric antibody ch26A12C1 (antibody, V domains shown)
VH: B5 VH with Q23K, T31N, H35Q, G56Y, T58S, Y80F, L101F, V117L
VL: B5 VL with L11M, H38Q, F49Y, A84T, P102T, K103E
notes: VH and VL of mouse 26A12C1 with human IgG1 constant regions; The entries as printed seem to begin with a leader peptide
B13: anti-L1CAM human-mouse chimeric antibody ch49E10H1 (antibody, V domains shown)
VH: B9 VH
VL: B9 VL
notes: VH and VL of mouse 49E10H1 with human IgG1 constant regions; The entries as printed seem to begin with a leader peptide

Biological target: T1, human L1CAM (L1 cell adhesion molecule), endogenously expressed on the surface of HeLa cells (human, UniProt P32004 20-1257)
T1 construct: whole, on cells; also called CD171
Experiment: flow cytometry on HeLa cells (endogenous human L1CAM)
Method: The experimental principle is as follows: HeLa cells express high levels of L1CAM protein on their surface. After incubating humanized L1CAM antibodies with the cells, the binding ability of the antibodies to L1CAM on the surface of HeLa cells can be determined by flow cytometry. The experimental method is descripted as following: Humanized L1CAM antibodies (Human IgG1-Kappa) are diluted in complete medium in a four-fold serial dilution, with seven concentration gradient points. HeLa cells are cultured in DMEM complete medium (Corning, 10-013-CVR) containing 10% FBS (Gibco, 10099-141) and 100 U/mL penicillin mixture (Thermofisher, 15140122). When the cell coverage in the culture container reaches 80-90%, TrypLE (Thermofisher, 12604-013) is used to digest the HeLa cells from the culture container, and they are seeded in a 96-well plate (AXYGEN, P-96-450V-C) at a density of 2.2×10⁶ cells/ml, with 100,000 cells (45 μL complete medium) per well. Then, 5 μL of the antibody dilution is added to each well, gently mixed, and the 96-well plate is incubated at 4° C. for 1 hour. Then, 150 μL of PBS solution containing 2% FBS (Corning, 21-040-CVC) is added to each well, centrifuged at 1400 rpm for 4 minutes, the supernatant is removed, and the wells are washed once more. Then, 50 μL of Alexa Flour 647-labeled goat anti-human fluorescent secondary antibody (Jacksonimmuno, 109-605-088) diluted 1:800 is added to each well, and the 96-well plate is incubated at 4° C. for 0.5 hours. The cells are washed twice with PBS solution containing 2% FBS, then resuspended in 120 μL of PBS, and the cell surface fluorescence signal is detected using a flow cytometer (BD FACS Celesta), obtaining the median fluorescence intensity (MFI). A dose-response curve is generated, and the half-maximal effective concentration (EC50) is calculated using non-linear regression with GraphPad software.

T1 sequence (P32004 20-1257): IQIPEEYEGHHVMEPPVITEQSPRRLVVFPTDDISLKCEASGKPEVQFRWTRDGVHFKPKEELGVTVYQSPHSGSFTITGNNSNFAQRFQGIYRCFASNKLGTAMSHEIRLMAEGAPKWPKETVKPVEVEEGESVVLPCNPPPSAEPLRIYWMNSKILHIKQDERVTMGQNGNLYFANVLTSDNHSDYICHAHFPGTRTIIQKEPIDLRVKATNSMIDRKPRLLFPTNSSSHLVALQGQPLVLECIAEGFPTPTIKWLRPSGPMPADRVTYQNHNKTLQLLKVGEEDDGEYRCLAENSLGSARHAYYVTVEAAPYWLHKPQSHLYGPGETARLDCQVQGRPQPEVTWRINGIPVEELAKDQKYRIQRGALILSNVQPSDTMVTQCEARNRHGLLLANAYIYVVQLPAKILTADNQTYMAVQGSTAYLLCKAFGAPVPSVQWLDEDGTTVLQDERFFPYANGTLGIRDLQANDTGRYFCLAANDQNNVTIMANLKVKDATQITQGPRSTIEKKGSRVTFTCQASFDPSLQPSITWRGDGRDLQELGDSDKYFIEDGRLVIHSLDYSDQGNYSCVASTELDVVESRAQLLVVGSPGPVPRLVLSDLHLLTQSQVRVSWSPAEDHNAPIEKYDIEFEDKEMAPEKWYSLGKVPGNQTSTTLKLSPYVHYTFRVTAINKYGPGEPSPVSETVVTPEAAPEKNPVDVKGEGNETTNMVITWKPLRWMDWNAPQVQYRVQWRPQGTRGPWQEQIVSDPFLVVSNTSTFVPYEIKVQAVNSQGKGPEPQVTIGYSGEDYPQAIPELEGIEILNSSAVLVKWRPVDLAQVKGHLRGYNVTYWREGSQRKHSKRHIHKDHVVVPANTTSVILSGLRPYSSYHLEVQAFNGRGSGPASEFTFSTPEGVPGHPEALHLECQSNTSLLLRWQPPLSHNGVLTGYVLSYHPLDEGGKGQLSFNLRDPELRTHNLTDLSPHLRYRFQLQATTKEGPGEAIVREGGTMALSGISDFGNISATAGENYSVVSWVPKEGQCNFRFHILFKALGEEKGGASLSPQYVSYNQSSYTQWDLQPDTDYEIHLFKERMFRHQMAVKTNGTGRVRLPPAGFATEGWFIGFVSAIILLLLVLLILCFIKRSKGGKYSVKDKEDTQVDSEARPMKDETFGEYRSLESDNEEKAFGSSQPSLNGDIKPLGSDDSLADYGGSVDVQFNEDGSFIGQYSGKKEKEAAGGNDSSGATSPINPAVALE

Question: For B1, which EC50 is on record?
Answer: 5.56 nM

Question: For B2, which EC50 is on record?
Answer: 2.06 nM

Question: With B3 as the binder, how does the EC50 read?
Answer: 1.96 nM

Question: Which EC50 does the source give for B4 here?
Answer: 1.21 nM

Biological target: T1, human L1CAM (L1 cell adhesion …)
Experiment: flow cytometry on HeLa cells (endogenous human L1CAM), hybridoma supernatant
Method: HeLa cells used in this example were used to measure the binding of mouse anti-L1CAM monoclonal antibodies to endogenously expressed human L1CAM on the cell surface. HeLa cells were cultured in DMEM complete medium (purchased from Corning) containing 10% FBS (purchased from Gibco) and 100 U/mL penicillin-streptomycin mixture (Thermofisher, 15140122). When the coverage of the cells in the culture container reached to 80-90%, using TrypLE (purchased from Thermofisher) to digest Hela cells from the culture container, and seed them in a 96-well plate (purchased from AXYGEN) at a density of 4×10⁶ cells/ml, with 100,000 cells per well (25 μL DMEM complete culture medium), then add 25 μL of diluted hybridoma supernatant containing antibodies to each well, mix gently, and incubate the 96-well plate at 4° C. for 1 hour. Then add 150 μL of PBS buffer containing 2% FBS (purchased from Corning) to each well, centrifuge at 1400 rpm for 4 minutes, remove the supernatant, and repeat washing once. Then, 50 μL of 1:800 diluted Alexa Flour 647-labeled goat anti-mouse fluorescent secondary antibody (purchased from Jacksonimmuno) was added to each well, and the 96-well plate was incubated at 4° C. for 0.5 hours. The cells were washed twice with PBS solution containing 2% FBS, and then resuspended in 120 μL of PBS. The fluorescence signal on the cell surface was detected using a flow cytometer (BD FACSCelesta) to obtain the median fluorescence intensity (MFI). The antibody-containing hybridoma supernatant was assayed using an anti-mouse ELISA assay to determine the concentration of mouse IgG in the supernatant. Finally, a dose-response curve was generated, and the half effective concentration (EC50) was calculated by nonlinear regression using GraphPad software.

Question: For B5, which EC50 is on record?
Answer: 0.193 nM

Question: Which EC50 does the source give for B6 here?
Answer: 0.144 nM

Question: B7 was tested. Which EC50 did it give?
Answer: 0.241 nM

Question: How did the EC50 turn out when B8 was run?
Answer: 0.436 nM

Question: B9 was tested. Which EC50 did it give?
Answer: 0.233 nM

Biological target: T1, human L1CAM (L1 cell adhesion …)
Experiment: flow cytometry on HeLa cells (endogenous human L1CAM)
Remark: another data set of the same source
Method: This example utilizes HeLa cells and L1CAM-knockout HeLa cells (purchased from Abcam) to determine the binding of mouse anti-L1CAM monoclonal antibodies to endogenously expressed human L1CAM on the cell surface. L1CAM-knockout HeLa cells are referred to as HeLa KO cells in this invention. HeLa cells are cultured in DMEM complete medium (purchased from Corning) containing 10% FBS (purchased from Gibco) and 100 U/mL penicillin mixture (Thermofisher, 15140122). […] Then, the human-mouse chimeric antibodies are serially diluted in DMEM complete medium, with 25 μL of the diluted chimeric antibody solution added to each well, gently mixed, and incubated at 4° C. for 1 hour. Then, 150 μL of PBS buffer containing 2% FBS (purchased from Corning) is added to each well, centrifuged at 1400 rpm for 4 minutes, the supernatant is removed, and the wells are washed once more. Then, 50 μL of Alexa Flour 647-labeled goat anti-human fluorescent secondary antibody (purchased from Jacksonimmuno) diluted 1:800 is added to each well, and the 96-well plate is incubated at 4° C. for 0.5 hours. The cells are washed twice with PBS solution containing 2% FBS, then resuspended in 120 μL of PBS, and the cell surface fluorescence signal is detected using a flow cytometer (BD FACSCelesta), obtaining the median fluorescence intensity (MFI). A dose-response curve is generated, and the half-maximal effective concentration (EC50) is calculated using non-linear regression with GraphPad software.

Question: Which results are given for B10?
Answer: EC50: 0.845 nM; Maxium MFI: 43100 MFI

Question: For B11, which EC50 is on record?
Answer: 0.833 nM

Question: And the “Maxium MFI” value?
Answer: 29300 MFI

Question: For B12, which EC50 is on record?
Answer: 0.739 nM

Question: And the “Maxium MFI” value?
Answer: 44700 MFI

Question: B4 was tested. Which EC50 did it give?
Answer: 1.11 nM

Question: What about the “Maxium MFI” value of the same binder?
Answer: 45400 MFI

Question: Which EC50 does the source give for B13 here?
Answer: 0.978 nM

Question: And the “Maxium MFI” value?
Answer: 42900 MFI
